In the assay the target is GFP-tagged Y822F vinculin (chicken), expressed in 4T1 vinculin-knockout cells (chicken) (UniProt P12003). As to the kind of experiment: co-IP; GFP or GFP-tagged vinculins immunoprecipitated with GFP antibody and protein A/G agarose from lysates of 4T1 vinculin-knockout cells (EB or RIPA buffer), reducing SDS-PAGE, immunoblot for talin, paxillin or β-actin; in one panel cells pre-treated with 10 mM NAC for 1 h (paxillin with Y822C reduced, not significantly changed with wild type and Y822F).
Chain of UniProt P12003 (P12003 whole entry Y822F): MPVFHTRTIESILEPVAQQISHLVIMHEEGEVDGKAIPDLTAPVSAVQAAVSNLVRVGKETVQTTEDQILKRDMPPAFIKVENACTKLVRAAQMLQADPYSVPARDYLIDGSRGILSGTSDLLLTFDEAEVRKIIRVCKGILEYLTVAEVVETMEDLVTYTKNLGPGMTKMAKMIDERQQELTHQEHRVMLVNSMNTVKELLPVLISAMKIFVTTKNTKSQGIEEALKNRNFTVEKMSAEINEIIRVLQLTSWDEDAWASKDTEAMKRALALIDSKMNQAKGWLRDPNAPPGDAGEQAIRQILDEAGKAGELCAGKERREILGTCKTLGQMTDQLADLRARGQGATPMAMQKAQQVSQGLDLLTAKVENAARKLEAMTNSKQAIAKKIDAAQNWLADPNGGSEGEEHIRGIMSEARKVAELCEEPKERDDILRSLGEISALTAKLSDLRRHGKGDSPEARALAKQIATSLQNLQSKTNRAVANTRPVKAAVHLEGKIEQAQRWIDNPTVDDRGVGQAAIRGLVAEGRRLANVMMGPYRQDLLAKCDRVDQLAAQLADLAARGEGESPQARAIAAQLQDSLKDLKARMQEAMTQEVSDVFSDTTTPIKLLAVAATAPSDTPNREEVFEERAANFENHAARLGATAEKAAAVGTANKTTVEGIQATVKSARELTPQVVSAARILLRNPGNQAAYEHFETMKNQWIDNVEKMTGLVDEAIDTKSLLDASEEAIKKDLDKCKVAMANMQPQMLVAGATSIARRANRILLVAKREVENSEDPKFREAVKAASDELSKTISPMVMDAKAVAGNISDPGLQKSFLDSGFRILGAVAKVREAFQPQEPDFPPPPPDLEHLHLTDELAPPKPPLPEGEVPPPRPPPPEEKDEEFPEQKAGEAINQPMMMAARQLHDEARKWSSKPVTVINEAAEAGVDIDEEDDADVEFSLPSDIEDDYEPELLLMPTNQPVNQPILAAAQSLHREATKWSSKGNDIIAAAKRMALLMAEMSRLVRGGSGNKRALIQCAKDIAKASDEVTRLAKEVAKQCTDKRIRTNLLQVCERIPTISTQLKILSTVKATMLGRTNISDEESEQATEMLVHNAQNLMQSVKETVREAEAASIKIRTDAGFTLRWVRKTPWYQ

For the substance “talin (endogenous in 4T1 cells; the paper's 'talin' refers collectively to talin 1 and 2) (from UniProt P26039 1-2541) (natural protein)”, the fold less talin recovered than with T12 vinculin stood at 390 fold.

Values taken from publication PMC10281268.
